Non-standard residues stand in square brackets, D forms with d. No end group written: not given here. *: point of attachment. EDDnp = O=[N+]([O-])c1ccc(NCCN*)c([N+](=O)[O-])c1; 2Abz = Nc1ccccc1C(=O)O
These substances were tested against T1, Recombinant KLK2 (Homo sapiens, UniProt P20151) (assay: Hydrolysis of FRET peptides by recombinant KLK2 (kinetic parameters)). Settings: pH 8.0, 20 mM Tris–HCl, 1 M sodium citrate, 37 °C, KLK2 1.6 nM; three enzymatic reactions, standard errors 5% or less.
T1 construct: made in house; host or cells: baculovirus-insect cell line system
Assay type: biochemical
Description: Obtained from a baculovirus-insect cell line system, purified, and activated as previously reported,[14] MUGB (4-methylumbelliferyl p-guanidino benzoate hydrochloride) was used for the spectrofluorimetric determination of molar concentrations of active KLK2.[15] KLK3 was obtained and assayed as previously reported.[3]
All of the FRET peptides were obtained by solid-phase peptide synthesis. The purity of FRET peptides to 95% or higher was obtained by semipreparative HPLC on a C18 reversed-phase column and used as protease substrates, as previously reported.[5] Details about the purification and quality of the FRET peptides are provided in the Supporting Information. The enzymatic kinetic measurements were all performed with FRET peptides as previously described.[5]
Five series of FRET peptides derived from Abz-KLRSSK-Q-EDDnp were assayed with KLK2 in 20 mM Tris–HCl, pH 8.0, and 1 M sodium citrate. […] The specificity of subsites S3, S2, S1’, and S2’ was explored by the FRET peptide series Abz-XLRSSKQ-EDDnp (for S3), Abz-KXRSSKQ-EDDnp (for S2), Abz-KLRXSKQ-EDDnp (for S1’), and Abz-KLRSXKQ-EDDnp (for S2’). All of them were hydrolyzed only at R–S or R–X peptide bonds, and the kinetic parameters for their hydrolysis by KLK2 are listed in Table 1.

T1 sequence (P20151 25-261): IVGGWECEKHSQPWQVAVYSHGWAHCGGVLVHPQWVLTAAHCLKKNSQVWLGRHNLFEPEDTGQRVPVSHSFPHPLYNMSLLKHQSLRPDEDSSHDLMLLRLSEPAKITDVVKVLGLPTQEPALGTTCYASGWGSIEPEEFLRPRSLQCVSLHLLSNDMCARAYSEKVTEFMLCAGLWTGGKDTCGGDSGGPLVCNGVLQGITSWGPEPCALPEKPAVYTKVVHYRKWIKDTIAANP

Point of comparison: “Abz-KXRSSKQ-EDDnp, X = V: FRET peptide, S2 series, X = V (Abz-KVRSSKQ-EDDnp)”, Km 8.5 µM. Against it:
- Abz-KLRXSKQ-EDDnp, X = L: FRET peptide, S1’ series, X = L ([2Abz]KLRLSKQ-EDDnp) — 2.6-fold lower, 3.3 µM
- Abz-KLRXSKQ-EDDnp, X = N: FRET peptide, S1’ series, X = N ([2Abz]KLRNSKQ-EDDnp) — within 1.5-fold, 8.6 µM
- Abz-KLRXSKQ-EDDnp, X = Q: FRET peptide, S1’ series, X = Q ([2Abz]KLRQSKQ-EDDnp) — within 1.5-fold, 6.1 µM
- Abz-KLRXSKQ-EDDnp, X = R: FRET peptide, S1’ series, X = R ([2Abz]KLRRSKQ-EDDnp) — 1.6-fold lower, 5.4 µM
- Abz-KLRXSKQ-EDDnp, X = V: FRET peptide, S1’ series, X = V ([2Abz]KLRVSKQ-EDDnp) — 3.9-fold lower, 2.2 µM
- Abz-KXRSSKQ-EDDnp, X = A: FRET peptide, S2 series, X = A [Abz-KXRSSKQ-EDDnp, X = A] ([2Abz]KARSSKQ-EDDnp) — 1.8-fold lower, 4.8 µM
- Abz-KXRSSKQ-EDDnp, X = E: FRET peptide, S2 series, X = E [Abz-KXRSSKQ-EDDnp, X = E] ([2Abz]KERSSKQ-EDDnp) — within 1.5-fold, 9.1 µM
- Abz-KXRSSKQ-EDDnp, X = F: FRET peptide, S2 series, X = F ([2Abz]KFRSSKQ-EDDnp) — 5.3-fold lower, 1.6 µM
- Abz-KXRSSKQ-EDDnp, X = G: FRET peptide, S2 series, X = G ([2Abz]KGRSSKQ-EDDnp) — within 1.5-fold, 12.4 µM
- Abz-KXRSSKQ-EDDnp, X = H: FRET peptide, S2 series, X = H (N-terminal Abz, C-terminal EDDnp; X = H) — within 1.5-fold, 9.6 µM
- Abz-KXRSSKQ-EDDnp, X = I: FRET peptide, S2 series, X = I [Abz-KXRSSKQ-EDDnp, X = I] (Abz-KIRSSKQ-EDDnp) — 1.9-fold lower, 4.5 µM
- Abz-KXRSSKQ-EDDnp, X = K: FRET peptide, S2 series, X = K (Abz-KKRSSKQ-EDDnp) — within 1.5-fold, 7.2 µM
- Abz-KXRSSKQ-EDDnp, X = N: FRET peptide, S2 series, X = N (Abz-KNRSSKQ-EDDnp) — within 1.5-fold, 10.1 µM
- Abz-KXRSSKQ-EDDnp, X = Q: FRET peptide, S2 series, X = Q [Abz-KXRSSKQ-EDDnp, X = Q] (Abz-KQRSSKQ-EDDnp) — within 1.5-fold, 8.3 µM
- Abz-KXRSSKQ-EDDnp, X = R: FRET peptide, S2 series, X = R (Abz-KRRSSKQ-EDDnp) — 1.6-fold lower, 5.2 µM
- Abz-KXRSSKQ-EDDnp, X = S: FRET peptide, S2 series, X = S (Abz-KSRSSKQ-EDDnp) — within 1.5-fold, 9.1 µM
- Abz-KXRSSKQ-EDDnp, X = T: FRET peptide, S2 series, X = T (Abz-KTRSSKQ-EDDnp) — within 1.5-fold, 10.5 µM
- Abz-KXRSSKQ-EDDnp, X = Y: FRET peptide, S2 series, X = Y [Abz-KXRSSKQ-EDDnp, X = Y] (Abz-KYRSSKQ-EDDnp) — 1.5-fold lower, 5.6 µM
- Abz-XLRSSKQ-EDDnp, X = E: FRET peptide, S3 series, X = E (Abz-ELRSSKQ-EDDnp) — within 1.5-fold, 7.6 µM
- Abz-XLRSSKQ-EDDnp, X = F: FRET peptide, S3 series, X = F [Abz-XLRSSKQ-EDDnp, X = F] (Abz-FLRSSKQ-EDDnp) — within 1.5-fold, 6.6 µM

Point of comparison: “Abz-KXRSSKQ-EDDnp, X = Q: FRET peptide, S2 series, X = Q [Abz-KXRSSKQ-EDDnp, X = Q] (Abz-KQRSSKQ-EDDnp)”, kcat 6.4 s^–1. Against it:
- Abz-KLRXSKQ-EDDnp, X = L: FRET peptide, S1’ series, X = L ([2Abz]KLRLSKQ-EDDnp) — higher, 6.7 s^–1
- Abz-KLRXSKQ-EDDnp, X = N: FRET peptide, S1’ series, X = N ([2Abz]KLRNSKQ-EDDnp) — higher, 14.8 s^–1
- Abz-KLRXSKQ-EDDnp, X = Q: FRET peptide, S1’ series, X = Q ([2Abz]KLRQSKQ-EDDnp) — higher, 8.5 s^–1
- Abz-KLRXSKQ-EDDnp, X = R: FRET peptide, S1’ series, X = R ([2Abz]KLRRSKQ-EDDnp) — higher, 8.2 s^–1
- Abz-KLRXSKQ-EDDnp, X = V: FRET peptide, S1’ series, X = V ([2Abz]KLRVSKQ-EDDnp) — higher, 8.1 s^–1
- Abz-KXRSSKQ-EDDnp, X = A: FRET peptide, S2 series, X = A [Abz-KXRSSKQ-EDDnp, X = A] ([2Abz]KARSSKQ-EDDnp) — lower, 2.2 s^–1
- Abz-KXRSSKQ-EDDnp, X = E: FRET peptide, S2 series, X = E [Abz-KXRSSKQ-EDDnp, X = E] ([2Abz]KERSSKQ-EDDnp) — lower, 1.0 s^–1
- Abz-KXRSSKQ-EDDnp, X = F: FRET peptide, S2 series, X = F ([2Abz]KFRSSKQ-EDDnp) — lower, 4.1 s^–1
- Abz-KXRSSKQ-EDDnp, X = G: FRET peptide, S2 series, X = G ([2Abz]KGRSSKQ-EDDnp) — lower, 1.0 s^–1
- Abz-KXRSSKQ-EDDnp, X = H: FRET peptide, S2 series, X = H (N-terminal Abz, C-terminal EDDnp; X = H) — lower, 4.7 s^–1
- Abz-KXRSSKQ-EDDnp, X = I: FRET peptide, S2 series, X = I [Abz-KXRSSKQ-EDDnp, X = I] (Abz-KIRSSKQ-EDDnp) — lower, 4.7 s^–1
- Abz-KXRSSKQ-EDDnp, X = K: FRET peptide, S2 series, X = K (Abz-KKRSSKQ-EDDnp) — lower, 3.0 s^–1
- Abz-KXRSSKQ-EDDnp, X = N: FRET peptide, S2 series, X = N (Abz-KNRSSKQ-EDDnp) — lower, 3.3 s^–1
- Abz-KXRSSKQ-EDDnp, X = R: FRET peptide, S2 series, X = R (Abz-KRRSSKQ-EDDnp) — higher, 8.7 s^–1
- Abz-KXRSSKQ-EDDnp, X = S: FRET peptide, S2 series, X = S (Abz-KSRSSKQ-EDDnp) — lower, 1.1 s^–1
- Abz-KXRSSKQ-EDDnp, X = T: FRET peptide, S2 series, X = T (Abz-KTRSSKQ-EDDnp) — lower, 3.6 s^–1
- Abz-KXRSSKQ-EDDnp, X = V: FRET peptide, S2 series, X = V (Abz-KVRSSKQ-EDDnp) — higher, 9.9 s^–1
- Abz-KXRSSKQ-EDDnp, X = Y: FRET peptide, S2 series, X = Y [Abz-KXRSSKQ-EDDnp, X = Y] (Abz-KYRSSKQ-EDDnp) — higher, 12.8 s^–1
- Abz-XLRSSKQ-EDDnp, X = E: FRET peptide, S3 series, X = E (Abz-ELRSSKQ-EDDnp) — higher, 7.4 s^–1
- Abz-XLRSSKQ-EDDnp, X = F: FRET peptide, S3 series, X = F [Abz-XLRSSKQ-EDDnp, X = F] (Abz-FLRSSKQ-EDDnp) — higher, 9.6 s^–1

Point of comparison: “Abz-KLRXSKQ-EDDnp, X = N: FRET peptide, S1’ series, X = N ([2Abz]KLRNSKQ-EDDnp)”, kcat/Km 1733 s^–1 mM^–1. Against it:
- Abz-KLRXSKQ-EDDnp, X = L: FRET peptide, S1’ series, X = L ([2Abz]KLRLSKQ-EDDnp) — higher, 2030 s^–1 mM^–1
- Abz-KLRXSKQ-EDDnp, X = Q: FRET peptide, S1’ series, X = Q ([2Abz]KLRQSKQ-EDDnp) — lower, 1393 s^–1 mM^–1
- Abz-KLRXSKQ-EDDnp, X = R: FRET peptide, S1’ series, X = R ([2Abz]KLRRSKQ-EDDnp) — lower, 1519 s^–1 mM^–1
- Abz-KLRXSKQ-EDDnp, X = V: FRET peptide, S1’ series, X = V ([2Abz]KLRVSKQ-EDDnp) — higher, 3682 s^–1 mM^–1
- Abz-KXRSSKQ-EDDnp, X = A: FRET peptide, S2 series, X = A [Abz-KXRSSKQ-EDDnp, X = A] ([2Abz]KARSSKQ-EDDnp) — lower, 458 s^–1 mM^–1
- Abz-KXRSSKQ-EDDnp, X = E: FRET peptide, S2 series, X = E [Abz-KXRSSKQ-EDDnp, X = E] ([2Abz]KERSSKQ-EDDnp) — lower, 110 s^–1 mM^–1
- Abz-KXRSSKQ-EDDnp, X = F: FRET peptide, S2 series, X = F ([2Abz]KFRSSKQ-EDDnp) — higher, 2563 s^–1 mM^–1
- Abz-KXRSSKQ-EDDnp, X = G: FRET peptide, S2 series, X = G ([2Abz]KGRSSKQ-EDDnp) — lower, 81 s^–1 mM^–1
- Abz-KXRSSKQ-EDDnp, X = H: FRET peptide, S2 series, X = H (N-terminal Abz, C-terminal EDDnp; X = H) — lower, 490 s^–1 mM^–1
- Abz-KXRSSKQ-EDDnp, X = I: FRET peptide, S2 series, X = I [Abz-KXRSSKQ-EDDnp, X = I] (Abz-KIRSSKQ-EDDnp) — lower, 1044 s^–1 mM^–1
- Abz-KXRSSKQ-EDDnp, X = K: FRET peptide, S2 series, X = K (Abz-KKRSSKQ-EDDnp) — lower, 417 s^–1 mM^–1
- Abz-KXRSSKQ-EDDnp, X = N: FRET peptide, S2 series, X = N (Abz-KNRSSKQ-EDDnp) — lower, 327 s^–1 mM^–1
- Abz-KXRSSKQ-EDDnp, X = Q: FRET peptide, S2 series, X = Q [Abz-KXRSSKQ-EDDnp, X = Q] (Abz-KQRSSKQ-EDDnp) — lower, 771 s^–1 mM^–1
- Abz-KXRSSKQ-EDDnp, X = R: FRET peptide, S2 series, X = R (Abz-KRRSSKQ-EDDnp) — lower, 1673 s^–1 mM^–1
- Abz-KXRSSKQ-EDDnp, X = S: FRET peptide, S2 series, X = S (Abz-KSRSSKQ-EDDnp) — lower, 121 s^–1 mM^–1
- Abz-KXRSSKQ-EDDnp, X = T: FRET peptide, S2 series, X = T (Abz-KTRSSKQ-EDDnp) — lower, 343 s^–1 mM^–1
- Abz-KXRSSKQ-EDDnp, X = V: FRET peptide, S2 series, X = V (Abz-KVRSSKQ-EDDnp) — lower, 1165 s^–1 mM^–1
- Abz-KXRSSKQ-EDDnp, X = Y: FRET peptide, S2 series, X = Y [Abz-KXRSSKQ-EDDnp, X = Y] (Abz-KYRSSKQ-EDDnp) — higher, 2304 s^–1 mM^–1
- Abz-XLRSSKQ-EDDnp, X = E: FRET peptide, S3 series, X = E (Abz-ELRSSKQ-EDDnp) — lower, 974 s^–1 mM^–1
- Abz-XLRSSKQ-EDDnp, X = F: FRET peptide, S3 series, X = F [Abz-XLRSSKQ-EDDnp, X = F] (Abz-FLRSSKQ-EDDnp) — lower, 1455 s^–1 mM^–1
